Target: M. tuberculosis LamA (MmpS3, Rv2198c) fused to a 3X-FLAG tag at the carboxy terminus (M. tuberculosis)
Assay: SDS-PAGE with western blot

M. tuberculosis LamA (MmpS3, Rv2198c) fused to a 3X-FLAG tag at the carboxy terminus (natural protein)
stoichiometry N: 2

From publication PMC12421883
